From patent US6083917
Several values for one entry are separate records, joined by “and”; a condition that tells them apart may be missing. Equal values may be shown once.

These substances were tested against rat brain protein farnesyltransferase (rat).

affinity for the enzyme relative to CVIM (from 50% inhibition) | half-maximal inhibition of farnesylation of p21^H-ras | Substance
6 fold | 25 nM | CVFM (peptide)

Target: rat brain protein farnesyltransferase (rat)
Remark: another data set of the same source

Substance | Concentration for 50% Inhibition (farnesylation of p21^H-ras)
CAIM (peptide) | 0.15 µM
CIIC (peptide) | 0.35 µM
CIIM (peptide) | 0.15 µM
CIIS (peptide) | 0.35 µM
CIKS (peptide) | > 100 µM
CVIL (peptide) | 11 µM
CVIM (peptide) | 0.15 µM
CVIS (peptide) | 1 µM
CVLS (peptide) | 3 µM

Further lines, results first:

Concentration for 50% Inhibition (farnesylation of p21^H-ras) | Substance
100 µM | CAIL (peptide)
0.35 µM | CCVQ (peptide)
17 µM | CLIL (peptide)
22 µM | CLLL (peptide)
0.2 µM | CSIM (peptide)
30 µM | CTVA (peptide)
5 µM | CVIA (peptide)
0.15 µM | CVLM (peptide)
0.15 µM | CVVM (peptide)

Target: rat brain protein farnesyltransferase (rat)
Remark: another data set of the same source

Substance | Concentration for 50% Inhibition of Farnesylation of p21^H-ras
CVFM (peptide) | 0.06 µM and 0.032 µM and 0.09 µM
CVIM (peptide) | 0.15 µM
CVWM (peptide) | 0.32 µM
N-AcCCVFM (peptide) | 0.11 µM
N-AcCVFM (peptide) | 0.25 µM
N-AcDCVFM (peptide) | 1.9 µM
N-AcECVFM (peptide) | 2.4 µM
N-AcGCVFM (peptide) | 0.43 µM
N-AcPCVFM (peptide) | 0.2 µM
N-AcSCVFM (peptide) | 0.23 µM
N-CholylCVFM (peptide) | 0.21 µM
N-Octanoyl-CVFM (peptide) | 0.35 µM

The next lines start with the values.

Concentration for 50% Inhibition of Farnesylation of p21^H-ras | Substance
0.44 µM | CCVFM (peptide)
1.1 µM | KCVFM (peptide)
0.15 µM | N-AcCVIM (peptide)
3.7 µM | N-AcCVWM (peptide)
0.24 µM | N-AcHCVFM (peptide)
0.3 µM | N-AcKCVFM (peptide)
1.4 µM | N-AcMCVFM (peptide)

Target: rat brain protein farnesyltransferase (rat)
Remark: another data set of the same source

Substance | Concentration for 50% Inhibition of Farnesylation of p21^H-ras | affinity for the enzyme (from 50% inhibition)
CEIM (peptide) | 1.5 µM | 
CPIM (peptide) | 8 µM | 
CVIM with glutamic acid at the A2 position (peptide) |  | > 50 fold
CVIM with lysine at the A2 position (peptide) |  | > 50 fold

Now from value to substance:

Concentration for 50% Inhibition of Farnesylation of p21^H-ras | affinity for the enzyme (from 50% inhibition) | Substance
4 µM |  | CGIM (peptide)
0.7 µM |  | CKIM (peptide)
8 µM |  | CVIM with glycine at the A2 position (peptide)
20 µM |  | CVPM (peptide)

Target: rat brain protein farnesyltransferase (rat)
Remark: another data set of the same source

Concentration for 50% Inhibition of Farnesylation of p21^H-ras | Substance
0.5 µM | CVIF (peptide)
> 40 µM | CVIM with glutamic acid at the X position (peptide)
> 40 µM | CVIM with glycine at the X position (peptide)
> 40 µM | CVIM with lysine at the X position (peptide)

Target: rat brain protein farnesyltransferase (rat)
Remark: another data set of the same source

Concentration for 50% Inhibition of Farnesylation of p21^H-ras | Substance
12 µM | CVIL (peptide)

Target: rat brain protein farnesyltransferase (rat)
Remark: another data set of the same source

affinity for the enzyme as estimated by the concentration required for 50% inhibition | Substance
> 30 fold | CVAM (peptide)
> 30 fold | CVIA (peptide)
> 30 fold | CVIM with lysine at the A2 position (peptide)
> 30 fold | CVIM with lysine at the X position (peptide)

Target: rat brain protein farnesyltransferase (rat)
Remark: another data set of the same source

concentration giving 50% inhibition of farnesylation of p21^H-ras (FIG. 23A) | Substance
0.07 µM | CVFM (peptide)
0.27 µM | N-AcCVFM (peptide)
